Results from PMC4222909, “The Porphyromonas gingivalis Ferric Uptake Regulator Orthologue Binds Hemin and Regulates Hemin-Responsive Biofilm Development” (PLoS ONE, 2014).
Positions count from the first letter of the chain named. In names and notes the source's numbering stands.

T1: Zn(II)Har150 (Porphyromonas gingivalis ATCC 33277) (UniProt B2RKX7)
T1 sequence: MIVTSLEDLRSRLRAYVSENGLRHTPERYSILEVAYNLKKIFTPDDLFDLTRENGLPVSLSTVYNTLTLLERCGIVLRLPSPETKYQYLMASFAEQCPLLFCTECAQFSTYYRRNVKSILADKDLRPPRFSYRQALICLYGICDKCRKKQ

B1: Zn(II)Har, recombinant Porphyromonas gingivalis Har (heme associated regulator, Fur orthologue PGN_1503) (natural protein, Porphyromonas gingivalis ATCC 33277, UniProt B2RKX7 1-166, looked up)
chain: MIVTSLEDLRSRLRAYVSENGLRHTPERYSILEVAYNLKKIFTPDDLFDLTRENGLPVSLSTVYNTLTLLERCGIVLRLPSPETKYQYLMASFAEQCPLLFCTECAQFSTYYRRNVKSILADKDLRPPRFSYRQALICLYGICDKCRKKQSALKKAADKAAPKKKK
notes: Har (Fur family transcriptional regulator), P. gingivalis ATCC 33277, gene PGN_1503 (501 bp), full length; Factor Xa site (IEGR) immediately before the start of har; Measured mass of apo-Har 19157.46 Da fits the theoretical 19157.20 Da; also called PgHar; rHar; source: E. coli BL21(DE3), purified (GSTrap, on-column Factor Xa cleavage, cation exchange, size exclusion); not shown: GST, N-terminal, …
B2: Zn(II)C97A, recombinant P. gingivalis Har with Cys97 substituted with Ala (natural protein)
chain: B1 chain with C97A
notes: also called HarC97A; source: E. coli BL21(DE3), purified (GSTrap, on-column Factor Xa cleavage, cation exchange, size exclusion); not shown: GST, N-terminal, cleaved
B3: Zn(II)Har150, recombinant P. gingivalis Har truncated by 16 amino acids at the C-terminus (domain or fragment)
chain: T1 sequence
notes: source: E. coli BL21(DE3), purified (GSTrap, on-column Factor Xa cleavage, cation exchange, size exclusion); not shown: GST, N-terminal, cleaved

How the values were obtained:
[1] = biological target: T1, Zn(II)Har150 (Porphyromonas gingivalis ATCC 33277); test: EMSA
[2] = biological target: T1, Zn(II)Har150 (Porphyromonas gingivalis ATCC 33277); test: competition
[3] = biological target: the molecule itself; test: SEC

Row | Molecule | binding [1] | binding [2] | stoichiometry N [3]
1 | GGTGTTGATAACTCGGTCGCGCCTTGGTCGGCTTTCGTATAAGTGTCTGGAATGCAGTGGAATAGCGTTGTTTCCTTCGCTGTTTATATCTCAAGGTTATAACCATCTGAAAACAATATAGATACGATTCATCTGAATTATACTACACTTTTTGTCGATTGTTTTTTTACTCTTTTGTTTGAACCTTTGCTATCCCCAAAGGAGCAATGAACGACTGCTCTCAAAACGATATTTTTTTAG (double strand) [FAM-dnaA (PGN_0001) promoter] | binds |  | 
2 | GGTGTTGATAACTCGGTCGCGCCTTGGTCGGCTTTCGTATAAGTGTCTGGAATGCAGTGGAATAGCGTTGTTTCCTTCGCTGTTTATATCTCAAGGTTATAACCATCTGAAAACAATATAGATACGATTCATCTGAATTATACTACACTTTTTGTCGATTGTTTTTTTACTCTTTTGTTTGAACCTTTGCTATCCCCAAAGGAGCAATGAACGACTGCTCTCAAAACGATATTTTTTTAG (double strand) [dnaA (PGN_0001) promoter 240 bp] | binds | binds | 
3 | B1 |  |  | 2
4 | B2 |  |  | 2
5 | B3 |  |  | 2
